T1: FcγRIIb extracellular domain with C-terminal His tag (human, UniProt P31994 43-217)
T1 construct: extracellular domain; also called FcgRIIb; 2b; not shown: His tag at the C terminus
T1 sequence (looked up): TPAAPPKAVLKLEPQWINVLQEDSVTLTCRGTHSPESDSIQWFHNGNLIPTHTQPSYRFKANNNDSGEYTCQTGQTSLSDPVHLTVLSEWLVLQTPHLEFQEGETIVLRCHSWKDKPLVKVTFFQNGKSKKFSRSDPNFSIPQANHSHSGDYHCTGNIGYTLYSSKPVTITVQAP

T2: FcγRIIa H (FcγRIIa type H, His at position 131), extracellular domain with C-terminal His tag (human, UniProt P12318 34-217)
T2 construct: extracellular domain; also called 2aH; FcgRIIa H; not shown: His tag at the C terminus
T2 sequence (looked up): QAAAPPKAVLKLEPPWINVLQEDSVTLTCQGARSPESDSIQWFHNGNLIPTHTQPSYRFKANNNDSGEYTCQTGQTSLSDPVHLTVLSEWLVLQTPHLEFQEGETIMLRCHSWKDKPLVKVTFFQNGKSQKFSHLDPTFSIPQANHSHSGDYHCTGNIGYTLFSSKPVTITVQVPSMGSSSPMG

T3: FcγRIIb, extracellular domain with C-terminal His tag (human, UniProt P31994 43-217)
T3 construct: extracellular domain; also called 2b; FcgRIIb; not shown: His tag at the C terminus
T3 sequence (looked up): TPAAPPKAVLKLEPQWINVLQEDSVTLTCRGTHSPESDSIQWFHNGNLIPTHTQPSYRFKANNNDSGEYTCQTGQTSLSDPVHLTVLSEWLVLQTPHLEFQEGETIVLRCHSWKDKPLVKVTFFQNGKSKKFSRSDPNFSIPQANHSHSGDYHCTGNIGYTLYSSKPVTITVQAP


How the values were obtained:
[1] = target: T4, FcγRIIIa extracellular domain with C-terminal His tag (human, UniProt P08637 17-208); assay: ratio of He/Con_3a to He/Con_2b (FcγRIIIa over FcγRIIb), SPR relative binding
T4 construct: extracellular domain; also called FcgRIIIa; 3a; not shown: His tag at the C terminus
T4 sequence (P08637 17-208): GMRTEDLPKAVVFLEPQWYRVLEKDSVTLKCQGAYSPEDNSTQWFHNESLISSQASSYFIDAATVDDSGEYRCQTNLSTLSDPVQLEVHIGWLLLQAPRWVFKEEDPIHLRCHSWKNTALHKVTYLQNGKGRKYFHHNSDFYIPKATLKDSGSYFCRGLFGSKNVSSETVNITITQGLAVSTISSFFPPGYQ
Experimental: (§1) The heterodimerized antibodies He Abs in which one of the H chains was introduced with an alteration were assayed for their binding activities to each activating FcγR and inhibitory FcγR according to the method described in Example 4. […] The activating FcγRs in FIGS. 26, 27, 28, and 29 are FcγRIa, FcγRIIa (R), FcγRIIa (H), and FcγRIIIa, respectively.
(§2) Analysis of interaction between objective antibody and the FcγR was carried out using Biacore T100 (GE Healthcare). HBS-EP+ (GE Healthcare) was used as the running buffer, and the measurement temperature was set to 25° C. Chips produced by immobilizing the antigen peptide by the amine coupling method to a Series S Sencor Chip CM5 (GE Healthcare), or alternatively, chips produced by allowing preliminarily biotinylated antigen peptides to interact with and immobilize onto a Series S Sensor Chip SA (certified) (GE Healthcare) were used. Antibodies of interest were captured onto an antigen peptide-immobilized chip, and allowed to interact to each FcγR diluted with running buffer. To regenerate and repeatedly use the chip, the antibodies captured on the chip were washed off by reacting 10 mM glycine-HCl, pH 1.5.

[2] = target: T1, FcγRIIb extracellular domain with …; assay: SPR (Biacore), antibody captured via antigen peptide, FcγR as analyte; binding relative to GpH7-A5/GpH7-B3/GpL16-k0 = 100
[3] = target: T4, FcγRIIIa extracellular domain with …; assay: as above
[4] = target: T2, FcγRIIa H (FcγRIIa type H, His at …); assay: ratio of He/Con_2aH (FcγRIIa H) to He/Con_2b (FcγRIIb), SPR relative binding
Experimental: as §1, §2

[5] = target: T2, FcγRIIa H (FcγRIIa type H, His at …); assay: SPR (Biacore), antibody captured on antigen-peptide chip, FcγR as analyte; GpH7-A5/GpH7-B3/GpL16-k0 = 100
Experimental: as §1, §2

[6] = target: T3, FcγRIIb, extracellular domain with …; assay: as above
Experimental: as §1, §2

| Binder | IIIa/IIb (He_3a/2b) [1] | He/Con_2b [2] | He/Con_3a [3] | He_2aH/2b (IIaH/IIb ratio) [4] | He/Con_2aH (relative binding activity) [5] | He/Con_2b (relative binding activity) [6] |
| --- | --- | --- | --- | --- | --- | --- |
| GpH7-A5/GpH7-B3 variant D270_12R/GpL16-k0 (antibody, human IgG1, kappa, He Ab: the mutation stands only in the GpH7-B3-derived H chain; also called He Ab D270R) heavy 1: not shown heavy 2: not shown light: DIVMTQSPLSLPVTPGEPASISCQASESLVHSNRNTYLHWYLQKPGQSPQLLIYKVSNRFSGVPDRFSGSGSGTDFTLKISRVEAEDVGVYYCSQNTHVPPTFGQGTKVEIERTVAAPSVFIFPPSDEQLKSGTASVVCLLNNFYPREAKVQWKVDNALQSGNSQESVTEQDSKDSTYSLSSTLTLSKADYEKHKVYACEVTHQGLSSPVTKSFNRGEC | 1.58 | 18.3 relative (control = 100) | 28.8 relative (control = 100) |  |  |  |
| GpH7-A5/GpH7-B3 variant V266_01G/GpL16-k0 (antibody, human IgG1, kappa, Heterodimerized IgG1 (He Ab); mutation only in the GpH7-B3 chain; also called He Ab V266G) heavy 1: not shown heavy 2: not shown light: DIVMTQSPLSLPVTPGEPASISCQASESLVHSNRNTYLHWYLQKPGQSPQLLIYKVSNRFSGVPDRFSGSGSGTDFTLKISRVEAEDVGVYYCSQNTHVPPTFGQGTKVEIERTVAAPSVFIFPPSDEQLKSGTASVVCLLNNFYPREAKVQWKVDNALQSGNSQESVTEQDSKDSTYSLSSTLTLSKADYEKHKVYACEVTHQGLSSPVTKSFNRGEC |  |  |  | 0.71 | 36.7 % of control | 51.5 % of control |
| GpH7-A5/GpH7-B3 variant S239_05P/GpL16-k0 (antibody, human IgG1, kappa, Heterodimerized IgG1 (He Ab); mutation only in the GpH7-B3 chain; also called He Ab S239P) heavy 1: not shown heavy 2: not shown light: DIVMTQSPLSLPVTPGEPASISCQASESLVHSNRNTYLHWYLQKPGQSPQLLIYKVSNRFSGVPDRFSGSGSGTDFTLKISRVEAEDVGVYYCSQNTHVPPTFGQGTKVEIERTVAAPSVFIFPPSDEQLKSGTASVVCLLNNFYPREAKVQWKVDNALQSGNSQESVTEQDSKDSTYSLSSTLTLSKADYEKHKVYACEVTHQGLSSPVTKSFNRGEC |  |  |  | 0.33 | 33.3 % of control | 102 % of control |
| GpH7-A5/GpH7-B3 variant D270_15Y/GpL16-k0 (antibody, human IgG1, kappa, He Ab: the mutation stands only in the GpH7-B3-derived H chain; also called He Ab D270Y) heavy 1: not shown heavy 2: not shown light: DIVMTQSPLSLPVTPGEPASISCQASESLVHSNRNTYLHWYLQKPGQSPQLLIYKVSNRFSGVPDRFSGSGSGTDFTLKISRVEAEDVGVYYCSQNTHVPPTFGQGTKVEIERTVAAPSVFIFPPSDEQLKSGTASVVCLLNNFYPREAKVQWKVDNALQSGNSQESVTEQDSKDSTYSLSSTLTLSKADYEKHKVYACEVTHQGLSSPVTKSFNRGEC | 1.22 | 44.9 relative (control = 100) | 54.5 relative (control = 100) |  |  |  |
| GpH7-A5/GpH7-B3 variant S239_08L/GpL16-k0 (antibody, human IgG1, kappa, Heterodimerized IgG1 (He Ab); mutation only in the GpH7-B3 chain; also called He Ab S239L) heavy 1: not shown heavy 2: not shown light: DIVMTQSPLSLPVTPGEPASISCQASESLVHSNRNTYLHWYLQKPGQSPQLLIYKVSNRFSGVPDRFSGSGSGTDFTLKISRVEAEDVGVYYCSQNTHVPPTFGQGTKVEIERTVAAPSVFIFPPSDEQLKSGTASVVCLLNNFYPREAKVQWKVDNALQSGNSQESVTEQDSKDSTYSLSSTLTLSKADYEKHKVYACEVTHQGLSSPVTKSFNRGEC |  |  |  | 0.75 | 105 % of control | 140 % of control |
| GpH7-A5/GpH7-B3 variant E269_19Q/GpL16-k0 (antibody, human IgG1, kappa, He Ab: the mutation stands only in the GpH7-B3-derived H chain; also called He Ab E269Q) heavy 1: not shown heavy 2: not shown light: DIVMTQSPLSLPVTPGEPASISCQASESLVHSNRNTYLHWYLQKPGQSPQLLIYKVSNRFSGVPDRFSGSGSGTDFTLKISRVEAEDVGVYYCSQNTHVPPTFGQGTKVEIERTVAAPSVFIFPPSDEQLKSGTASVVCLLNNFYPREAKVQWKVDNALQSGNSQESVTEQDSKDSTYSLSSTLTLSKADYEKHKVYACEVTHQGLSSPVTKSFNRGEC | 1.47 | 44.3 relative (control = 100) | 65 relative (control = 100) |  |  |  |
| GpH7-A5/GpH7-B3 variant Q295_01G/GpL16-k0 (antibody, human IgG1, kappa, He Ab: the mutation stands only in the GpH7-B3-derived H chain; also called He Ab Q295G) heavy 1: not shown heavy 2: not shown light: DIVMTQSPLSLPVTPGEPASISCQASESLVHSNRNTYLHWYLQKPGQSPQLLIYKVSNRFSGVPDRFSGSGSGTDFTLKISRVEAEDVGVYYCSQNTHVPPTFGQGTKVEIERTVAAPSVFIFPPSDEQLKSGTASVVCLLNNFYPREAKVQWKVDNALQSGNSQESVTEQDSKDSTYSLSSTLTLSKADYEKHKVYACEVTHQGLSSPVTKSFNRGEC | 1.59 | 46 relative (control = 100) | 73 relative (control = 100) |  |  |  |

— patent US20180155451A1 (published 2018)
